{"source": "patent US20230104113", "tested_on": "NF-kB (human)", "assay": "cell_activity", "conditions": "lipid transfection of 1 pmol", "data": [{"sequence": "AAAAAAAAAAGAUCUUGAAACUGUUUUAAGGUUGGCCGAUCUUAAAAAA [NF-kB aptamer circular RNA]", "values": [{"measurement": "activity", "setting": "A549 MTT day 2 (89% day 1), with doxorubicin 79% day 1, 73% day 2", "value": 86, "unit": "% viability"}]}, {"sequence": "AAAAAAAAAAGAUCUUGAAACUGUUUUAAGGUUGGCCGAUCUUAAAAAA [NF-kB aptamer linear RNA]", "values": [{"measurement": "activity", "setting": "5' monophosphate, A549 MTT day 2 (101% day 1), with doxorubicin 78% day 2", "value": 97, "unit": "% viability"}]}]}
